Experimental data reported in the supplement of paper PMC5998384.

Assays:
[1] = test system: HeLa Kyoto; assay: solubility in G1/S (NP-40 vs SDS abundance) (log2 ratio); higher = more soluble; settings: cell cycle stage: G1/S
[2] = test system: HeLa Kyoto; assay: solubility change mitosis vs G1/S (difference of NP-40 vs SDS log2 ratios) (log2 ratio difference); higher = more soluble in mitosis
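Throughout, for solubility change mitosis vs G1/S (difference of NP-40 vs SDS log2 ratios): synchronized HeLa Kyoto cells (double thymidine block for G1/S, nocodazole release for mitosis), protein amounts in NP-40 versus SDS lysates quantified by mass spectrometry, three biological replicates.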
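Throughout, for solubility in G1/S (NP-40 vs SDS abundance): HeLa Kyoto cells arrested at G1/S by double thymidine block, proteins quantified by TMT10plex mass spectrometry in mild NP-40 versus SDS extracts, three biological replicates.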

Chain of DGKZ (chain, as listed by the source): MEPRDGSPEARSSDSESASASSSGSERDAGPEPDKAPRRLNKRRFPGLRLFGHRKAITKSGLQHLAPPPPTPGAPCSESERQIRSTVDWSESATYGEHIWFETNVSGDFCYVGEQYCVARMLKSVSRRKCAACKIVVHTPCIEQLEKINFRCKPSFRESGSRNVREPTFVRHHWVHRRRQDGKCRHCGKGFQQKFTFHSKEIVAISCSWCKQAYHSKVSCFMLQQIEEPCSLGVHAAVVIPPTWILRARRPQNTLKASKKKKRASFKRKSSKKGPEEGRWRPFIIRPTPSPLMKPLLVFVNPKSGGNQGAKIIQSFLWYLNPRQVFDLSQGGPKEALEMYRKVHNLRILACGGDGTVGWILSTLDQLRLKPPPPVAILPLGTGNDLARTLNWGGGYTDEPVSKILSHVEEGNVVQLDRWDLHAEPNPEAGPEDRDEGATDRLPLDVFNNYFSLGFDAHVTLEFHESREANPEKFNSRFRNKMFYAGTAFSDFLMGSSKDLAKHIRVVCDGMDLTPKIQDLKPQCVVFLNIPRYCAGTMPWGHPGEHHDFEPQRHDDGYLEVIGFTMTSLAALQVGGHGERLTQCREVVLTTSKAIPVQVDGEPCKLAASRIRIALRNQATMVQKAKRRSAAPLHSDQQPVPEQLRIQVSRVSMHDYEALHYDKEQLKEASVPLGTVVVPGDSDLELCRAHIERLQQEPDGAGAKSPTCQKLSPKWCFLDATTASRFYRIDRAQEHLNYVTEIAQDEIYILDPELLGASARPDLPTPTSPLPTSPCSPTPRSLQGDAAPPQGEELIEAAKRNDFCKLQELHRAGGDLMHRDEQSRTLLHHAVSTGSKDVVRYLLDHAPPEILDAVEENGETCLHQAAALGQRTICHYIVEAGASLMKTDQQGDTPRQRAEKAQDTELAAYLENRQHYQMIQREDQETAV

| Substance | solubility in G1/S (log2) [1] | solubility change mitosis (log2) [2] |
| --- | --- | --- |
| MWVNPEEVLLANALWITERANPYFILQRRKGHAGDGGGGGGLAGLLVGTLDVVLDSSARVAPYRILYQTPDSLVYWTIACGGSRKEITEHWEWLEQNLLQTLSIFENENDITTFVRGKIQGIIAEYNKINDVKEDDDTEKFKEAIVKFHRLFGMPEEEKLVNYYSCSYWKGKVPRQGWMYLSINHLCFYSFLMGREAKLVIRWVDITQLEKNATLLLPDVIKVSTRSSEHFFSVFLNINETFKLMEQLANIAMRQLLDNEGFEQDRSLPKLKRKSPKKVSALKRDLDARAKSERYRALFRLPKDEKLDGHTDCTLWTPFNKMHILGQMFVSTNYICFTSKEENLCSLIIPLREVTIVEKADSSSVLPSPLSISTRNRMTFLFANLKDRDFLVQRISDFLQQTTSKIYSDKEFAGSYNSSDDEVYSRPSSLVSSSPQRSTSSDADGERQFNLNGNSVPTATQTLMTMYRRRSPEEFNPKLAKEFLKEQAWKIHFAEYGQGICMYRTEKTRELVLKGIPESMRGELWLLLSGAINEKATHPGYYEDLVEKSMGKYNLATEEIERDLHRSLPEHPAFQNEMGIAALRRVLTAYAFRNPNIGYCQAMNIVTSVLLLYAKEEEAFWLLVALCERMLPDYYNTRVVGALVDQGVFEELARDYVPQLYDCMQDLGVISTISLSWFLTLFLSVMPFESAVVVVDCFFYEGIKVIFQLALAVLDANVDKLLNCKDDGEAMTVLGRYLDSVTNKDSTLPPIPHLHSLLSDDVEPYPEVDIFRLIRTSYEKFGTIRADLIEQMRFKQRLKVIQTLEDTTKRNVVRTIVTETSFTIDELEELYALFKAEHLTSCYWGGSSNALDRHDPSLPYLEQYRIDFEQFKGMFALLFPWACGTHSDVLASRLFQLLDENGDSLINFREFVSGLSAACHGDLTEKLKLLYKMHVLPEPSSDQDEPDSAFEATQYFFEDITPECTHVVGLDSRSKQGADDGFVTVSLKPDKGKRANSQENRNYLRLWTPENKSKSKNAKDLPKLNQGQFIELCKTMYNMFSEDPNEQELYHATAAVTSLLLEIGEVGKLFVAQPAKEGGSGGSGPSCHQGIPGVLFPKKGPGQPYVVESVEPLPASLAPDSEEHSLGGQMEDIKLEDSSPRDNGACSSMLISDDDTKDDSSMSSYSVLSAGSHEEDKLHCEDIGEDTVLVRSGQGTAALPRSTSLDRDWAITFEQFLASLLTEPALVKYFDKPVCMMARITSAKNIRMMGKPLTSASDYEISAMSG [TBC1D9] | -0.4 | 0.38 |
| MPIPPPPPPPPGPPPPPTFHQANTEQPKLSRDEQRGRGALLQDICKGTKLKKVTNINDRSAPILEKPKGSSGGYGSGGAALQPKGGLFQGGVLKLRPVGAKDGSENLAGKPALQIPSSRAAAPRPPVSAASGRPQDDTDSSRASLPELPRMQRPSLPDLSRPNTTSSTGMKHSSSAPPPPPPGRRANAPPTPLPMHSSKAPAYNREKPLPPTPGQRLHPGREGPPAPPPVKPPPSPVNIRTGPSGQSLAPPPPPYRQPPGVPNGPSSPTNESAPELPQRHNSLHRKTPGPVRGLAPPPPTSASPSLLSNRPPPPARDPPSRGAAPPPPPPVIRNGARDAPPPPPPYRMHGSEPPSRGKPPPPPSRTPAGPPPPPPPPLRNGHRDSITTVRSFLDDFESKYSFHPVEDFPAPEEYKHFQRIYPSKTNRAARGAPPLPPILR [WIPF2] | -0.764 | 1.2 |
| MNSVGEACTDMKREYDQCFNRWFAEKFLKGDSSGDPCTDLFKRYQQCVQKAIKEKEIPIEGLEFMGHGKEKPENSS [TRIAP1] | -0.88 | 0.6 |
| DGKZ | 0.0613 | 0.323 |
| MFHSPRRLCSALLQRDAPGLRRLPAPGLRRPLSPPAAVPRPASPRLLAAASAASGAARSCSRTVCSMGTGTSRLYSALAKTLNSSAASQHPEYLVSPDPEHLEPIDPKELLEECRAVLHTRPPRFQRDFVDLRTDCPSTHPPIRVMQWNILAQALGEGKDNFVQCPVEALKWEERKCLILEEILAYQPDILCLQEVDHYFDTFQPLLSRLGYQGTFFPKPWSPCLDVEHNNGPDGCALFFLQNRFKLVNSANIRLTAMTLKTNQVAIAQTLECKESGRQFCIAVTHLKARTGWERFRSAQGCDLLQNLQNITQGAKIPLIVCGDFNAEPTEEVYKHFASSSLNLNSAYKLLSADGQSEPPYTTWKIRTSGECRHTLDYIWYSKHALNVRSALDLLTEEQIGPNRLPSFNYPSDHLSLVCDFSFTEESDGLS [NOCT] | 0.0632 | -0.0975 |
| MPAGGRAGSLKDPDVAELFFKDDPEKLFSDLREIGHGSFGAVYFARDVRNSEVVAIKKMSYSGKQSNEKWQDIIKEVRFLQKLRHPNTIQYRGCYLREHTAWLVMEYCLGSASDLLEVHKKPLQEVEIAAVTHGALQGLAYLHSHNMIHRDVKAGNILLSEPGLVKLGDFGSASIMAPANSFVGTPYWMAPEVILAMDEGQYDGKVDVWSLGITCIELAERKPPLFNMNAMSALYHIAQNESPVLQSGHWSEYFRNFVDSCLQKIPQDRPTSEVLLKHRFVLRERPPTVIMDLIQRTKDAVRELDNLQYRKMKKILFQEAPNGPGAEAPEEEEEAEPYMHRAGTLTSLESSHSVPSMSISASSQSSSVNSLADASDNEEEEEEEEEEEEEEEGPEAREMAMMQEGEHTVTSHSSIIHRLPGSDNLYDDPYQPEITPSPLQPPAAPAPTSTTSSARRRAYCRNRDHFATIRTASLVSRQIQEHEQDSALREQLSGYKRMRRQHQKQLLALESRLRGEREEHSARLQRELEAQRAGFGAEAEKLARRHQAIGEKEARAAQAEERKFQQHILGQQKKELAALLEAQKRTYKLRKEQLKEELQENPSTPKREKAEWLLRQKEQLQQCQAEEEAGLLRRQRQYFELQCRQYKRKMLLARHSLDQDLLREDLNKKQTQKDLECALLLRQHEATRELELRQLQAVQRTRAELTRLQHQTELGNQLEYNKRREQELRQKHAAQVRQQPKSLKVRAGQRPPGLPLPIPGALGPPNTGTPIEQQPCSPGQEAVLDQRMLGEEEEAVGERRILGKEGATLEPKQQRILGEESGAPSPSPQKHGSLVDEEVWGLPEEIEELRVPSLVPQERSIVGQEEAGTWSLWGKEDESLLDEEFELGWVQGPALTPVPEEEEEEEEGAPIGTPRDPGDGCPSPDIPPEPPPTHLRPCPASQLPGLLSHGLLAGLSFAVGSSSGLLPLLLLLLLPLLAAQGGGGLQAALLALEVGLVGLGASYLLLCTALHLPSSLFLLLAQGTALGAVLGLSWRRGLMGVPLGLGAAWLLAWPGLALPLVAMAAGGRWVRQQGPRVRRGISRLWLRVLLRLSPMAFRALQGCGAVGDRGLFALYPKTNKDGFRSRLPVPGPRRRNPRTTQHPLALLARVWVLCKGWNWRLARASQGLASHLPPWAIHTLASWGLLRGERPTRIPRLLPRSQRQLGPPASRQPLPGTLAGRRSRTRQSRALPPWR [TAOK2] | -0.239 | -0.0236 |
| MQGSTRRMGVMTDVHRRFLQLLMTHGVLEEWDVKRLQTHCYKVHDRNATVDKLEDFINNINSVLESLYIEIKRGVTEDDGRPIYALVNLATTSISKMATDFAENELDLFRKALELIIDSETGFASSTNILNLVDQLKGKKMRKKEAEQVLQKFVQNKWLIEKEGEFTLHGRAILEMEQYIRETYPDAVKICNICHSLLIQGQSCETCGIRMHLPCVAKYFQSNAEPRCPHCNDYWPHEIPKVFDPEKERESGVLKSNKKSLRSRQH [NSMCE1] | 0.0262 | -0.0633 |
| MSFRGGGRGGFNRGGGGGGFNRGGSSNHFRGGGGGGGGGNFRGGGRGGFGRGGGRGGFNKGQDQGPPERVVLLGEFLHPCEDDIVCKCTTDENKVPYFNAPVYLENKEQIGKVDEIFGQLRDFYFSVKLSENMKASSFKKLQKFYIDPYKLLPLQRFLPRPPGEKGPPRGGGRGGRGGGRGGGGRGGGRGGGFRGGRGGGGGGFRGGRGGGFRGRGH [GAR1] | -1.36 | 1.41 |
| MSGPCGEKPVLEASPTMSLWEFEDSHSRQGTPRPGQELAAEEASALELQMKVDFFRKLGYSSTEIHSVLQKLGVQADTNTVLGELVKHGTATERERQTSPDPCPQLPLVPRGGGTPKAPNLEPPLPEEEKEGSDLRPVVIDGSNVAMSHGNKEVFSCRGILLAVNWFLERGHTDITVFVPSWRKEQPRPDVPITDQHILRELEKKKILVFTPSRRVGGKRVVCYDDRFIVKLAYESDGIVVSNDTYRDLQGERQEWKRFIEERLLMYSFVNDKFMPPDDPLGRHGPSLDNFLRKKPLTLEHRKQPCPYGRKCTYGIKCRFFHPERPSCPQRSVADELRANALLSPPRAPSKDKNGRRPSPSSQSSSLLTESEQCSLDGKKLGAQASPGSRQEGLTQTYAPSGRSLAPSGGSGSSFGPTDWLPQTLDSLPYVSQDCLDSGIGSLESQMSELWGVRGGGPGEPGPPRAPYTGYSPYGSELPATAAFSAFGRAMGAGHFSVPADYPPAPPAFPPREYWSEPYPLPPPTSVLQEPPVQSPGAGRSPWGRAGSLAKEQASVYTKLCGVFPPHLVEAVMGRFPQLLDPQQLAAEILSYKSQHPSE [ZC3H12A] | 0.15 | -0.0716 |
| MSMILSASVIRVRDGLPLSASTDYEQSTGMQECRKYFKMLSRKLAQLPDRCTLKTGHYNINFISSLGVSYMMLCTENYPNVLAFSFLDELQKEFITTYNMMKTNTAVRPYCFIEFDNFIQRTKQRYNNPRSLSTKINLSDMQTEIKLRPPYQISMCELGSANGVTSAFSVDCKGAGKISSAHQRLEPATLSGIVGFILSLLCGALNLIRGFHAIESLLQSDGDDFNYIIAFFLGTAACLYQCYLLVYYTGWRNVKSFLTFGLICLCNMYLYELRNLWQLFFHVTVGAFVTLQIWLRQAQGKAPDYDV [SEC22A] | -0.17 | -0.0544 |
| MATFVSELEAAKKNLSEALGDNVKQYWANLKLWFKQKISKEEFDLEAHRLLTQDNVHSHNDFLLAILTRCQILVSTPDGAGSLPWPGGSAAKPGKPKGKKKLSSVRQKFDHRFQPQNPLSGAQQFVAKDPQDDDDLKLCSHTMMLPTRGQLEGRMIVTAYEHGLDNVTEEAVSAVVYAVENHLKDILTSVVSRRKAYRLRDGHFKYAFGSNVTPQPYLKNSVVAYNNLIESPPAFTAPCAGQNPASHPPPDDAEQQAALLLACSGDTLPASLPPVNMYDLFEALQVHREVIPTHTVYALNIERIITKLWHPNHEELQQDKVHRQRLAAKEGLLLC [TADA1] | 0.289 | -0.0314 |
| MADSAELKQMVMSLRVSELQVLLGYAGRNKHGRKHELLTKALHLLKAGCSPAVQMKIKELYRRRFPQKIMTPADLSIPNVHSSPMPATLSPSTIPQLTYDGHPASSPLLPVSLLGPKHELELPHLTSALHPVHPDIKLQKLPFYDLLDELIKPTSLASDNSQRFRETCFAFALTPQQVQQISSSMDISGTKCDFTVQVQLRFCLSETSCPQEDHFPPNLCVKVNTKPCSLPGYLPPTKNGVEPKRPSRPINITSLVRLSTTVPNTIVVSWTAEIGRNYSMAVYLVKQLSSTVLLQRLRAKGIRNPDHSRALIKEKLTADPDSEIATTSLRVSLLCPLGKMRLTIPCRALTCSHLQCFDATLYIQMNEKKPTWVCPVCDKKAPYEHLIIDGLFMEILKYCTDCDEIQFKEDGTWAPMRSKKEVQEVSASYNGVDGCLSSTLEHQVASHHQSSNKNKKVEVIDLTIDSSSDEEEEEPSAKRTCPSLSPTSPLNNKGILSLPHQASPVSRTPSLPAVDTSYINTSLIQDYRHPFHMTPMPYDLQGLDFFPFLSGDNQHYNTSLLAAAAAAVSDDQDLLHSSRFFPYTSSQMFLDQLSAGGSTSLPTTNGSSSGSNSSLVSSNSLRESHSHTVTNRSSTDTASIFGIIPDIISLD [PIAS1] | -0.461 | 0.113 |
| PHRF1 | -0.629 | 0.566 |
